Experimental data published in patent publication US20230181640A1 (SHANGHAI ABELZETA, published 2023).

B1: hBCMA-ECD-Fc (fusion protein of human BCMA extracellular domain Met1-Ala54 and human IgG1 Fc fragment Pro100-Lys330) (Fc fusion, UniProt Q02223 1-54, looked up)
chain: MLQMAGQCSQNEYFDSLLHACIPCQLRCSSNTPPLTCQRYCNASVTNSVKGTNA
notes: range 1-54; also the immunogen; also called soluble extracellular domain of human BCMA; not shown: human IgG1 Fc fragment, Pro100-Lys330

How the values were obtained:
[1] = target: B1; experiment: ELISA, chimeric antibody supernatant
[2] = target: T1, human BCMA on cells (L-BCMA+, K562-BCMA+, A549-BCMA-1D6) (human, UniProt Q02223 1-184); experiment: FACS, chimeric antibody supernatant, L-BCMA+ cells
T1 construct: whole, on cells; the cell line of each assay is named under assay; also called L-BCMA-1E6-A4; K562-BCMA-B22D8
T1 sequence (looked up): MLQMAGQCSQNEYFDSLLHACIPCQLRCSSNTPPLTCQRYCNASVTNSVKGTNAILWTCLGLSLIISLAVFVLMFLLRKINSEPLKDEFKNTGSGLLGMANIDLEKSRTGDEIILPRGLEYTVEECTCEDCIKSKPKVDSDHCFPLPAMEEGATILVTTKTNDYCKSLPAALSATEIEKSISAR

[3] = target: T2, hybridoma antibody 6G10-1D7 (mAb001); experiment: flow cytometry competition: hBCMA-ECD-Fc against K562-BCMA+ cells for mAb001 at 1 µg/ml
T2 construct: tested as supernatant and purified; also called CP01

[4] = target: T2, hybridoma antibody 6G10-1D7 (mAb001); experiment: flow cytometry competition: BCMA of K562-BCMA+ supernatant against K562-BCMA+ cells for mAb001 at 1 µg/ml

T2 sequence (VH, as listed by the source, chain 1 of 2): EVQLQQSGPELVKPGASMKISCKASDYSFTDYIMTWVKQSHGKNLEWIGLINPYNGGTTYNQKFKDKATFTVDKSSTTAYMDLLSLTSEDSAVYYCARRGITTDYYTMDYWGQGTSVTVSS
T2 sequence (VL, as listed by the source, chain 2 of 2): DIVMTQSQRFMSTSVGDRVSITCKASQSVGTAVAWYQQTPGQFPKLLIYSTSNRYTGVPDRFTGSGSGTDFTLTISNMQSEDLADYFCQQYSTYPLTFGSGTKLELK

Binder	ELISA (OD450 nm) [1] [OD450]	FACS (MFI) [2] [MFI]	also measured
chimeric antibody of hybridoma 113B3F12 (antibody, human IgG1, kappa, V domains shown, IgG1,κ chimeric antibody, HEK 293T supernatant) VH: EVQLQQSGPVLVKPGASVKMSCKASGYTFTDYYMNWVKQSHGKSLEWIGVINPYNGGTDYNQKFKGKATLTVDKSSSTAYMELNSLTSEDSAVYYCARRRESYGTSYQGAYFDSWGQGTTLTVSS VL: DIQMTQTTSSLSASLGDRVTISCRASQDISNYLNWYQQKPDGTVKLLIYYTSRLHSGVPSRFSGSGSGTDYSLSISDLEQEDIATYFCQQVITLPWTFGGGTKLEIKR	0.09	37.5	–
B1	–	–	IC50 [3]: 0.731 µg/mL; molar ratio at IC50 [3]: 1.7 molar ratio (:1)
BCMA of K562-BCMA+ medium supernatant (soluble BCMA) (receptor, UniProt Q02223 1-54, looked up) MLQMAGQCSQNEYFDSLLHACIPCQLRCSSNTPPLTCQRYCNASVTNSVKGTNA	–	–	IC50 [4]: 0.466 µg/mL; molar ratio at IC50 [4]: 10.4 molar ratio (:1)
chimeric antibody of hybridoma 105C10F1 (antibody, human IgG1, kappa, V domains shown, IgG1,κ chimeric antibody, HEK 293T supernatant) VH: EVKLLQSGGGLVQPGGSLKLSCAASGIDFSRYWMSWVRRAPGKGLEWIGEINPDSSTINYAPSLKDKFIISRDAAKNTLYLQMSKVRSEDTALYYCATLYYDYDGDYAMDYWGQGTSVTVSS VL: DIVMTPSQKFMSTSVGDRVSVTCKASQNVGTNVAWYQQKPGQSPKALIYSASYRYSGVPDRFTGSGSGTDFTLTISNVQSEDLAEYFCQHYNSYPFTFGSGTKLEIKR	2.39	1800	–
chimeric antibody 107A9A4D2VH/VL-1 (antibody, human IgG1, kappa, V domains shown, IgG1,κ chimeric antibody, HEK 293T supernatant; also called 107A9A4D2VH paired with 107A9A4D2VL-1) VH: EVQLQQSGPVLVKPGASVKMSCKASGYTFTDLYMNWLKQSHGKRLEWIGVINPYNGGTSYNQKFKGKATLTVDKSSSTAYMDLNSLTSEDSAVYYCARGDSIYVMDYWGQGTSFTVSS VL: ENVLTQSPAIMSASPGEKVTMTCSASSSVSYMHWYQQKSSTSPKLWIYDTSKLSSGVPGRFSGSGSGKSYSLTISSMEAEDVATYYCFQGSGYPLFTFGSGTKLEIKR	0.13	42.5	–
